Measurements taken from paper PMC3814767, “Target Specificity of the E3 Ligase LUBAC for Ubiquitin and NEMO Relies on Different Minimal Requirements* ^([image sbox.jpg])” (The Journal of Biological Chemistry, 2013).

Target: T1, N-terminal TAMRA-labeled ubiquitin (wild type) (UniProt P0CG48 1-76, TAMRA (5-carboxytetramethylrhodamine) label on the N-terminus)
T1 construct: also called ^TAMRAubiquitin; ^TAMRAUb; source: chemically synthesized (according to El Oualid et al.), purified over Resource S and gel filtration (Superdex 75)
Test: fluorescence polarisation; TAMRA-ubiquitin 1 nM, HOIP^LDD in 1:1 serial dilutions, three repeats; 20 mM Hepes pH 7.5, 150 mM NaCl, 5 mM βME, 1 g/liter chicken ovalbumin; fit to a 1:1 non-linear binding model
Details: both partners purified

Kd: 160 ± 40 µM
B1: HOIP linear ubiquitin chain determining domain (LDD) (domain or fragment, UniProt Q96EP0 910-1072, looked up)
chain: KCPEPNCRVKKSLHGHHPRDCLFYLRDWTALRLQKLLQDNNVMFNTEPPAGARAVPGGGCRVIEQKEVPNGLRDEACGKETPAGYAGLCQAHYKEYLVSLINAHSLDPATLYEVEELETATERYLHVRPQPLAGEDPPAYQARLLQKLTEEVPLGQSIPRRRK
notes: HOIP (RNF31), the C-terminal linear ubiquitin chain determining domain (LDD); also called HOIP^LDD; HOIP LDD domain
